Results as given in patent publication US20120184718A1.

Target: human FAS polypeptide (human) (UniProt P25445)
Assay: cell-based or functional assay

UniProt P25445, sequence (P25445 26-335 limits assumed): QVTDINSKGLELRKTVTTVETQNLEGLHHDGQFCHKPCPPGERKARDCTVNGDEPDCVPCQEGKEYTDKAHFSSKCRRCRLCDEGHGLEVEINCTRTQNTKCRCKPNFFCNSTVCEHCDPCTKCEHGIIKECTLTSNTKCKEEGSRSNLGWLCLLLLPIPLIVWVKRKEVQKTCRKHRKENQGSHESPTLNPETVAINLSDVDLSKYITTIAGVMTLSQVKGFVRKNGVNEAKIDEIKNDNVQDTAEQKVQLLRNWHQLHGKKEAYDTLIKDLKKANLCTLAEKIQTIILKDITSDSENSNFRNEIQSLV

## HFE7A IgG (antibody)
  apoptosis (DNA fragmentation), U87-MG cells, 24 hours, cross-linked antibody (fold of cross-linked ApomAb): 2
